# Reference: US11504441B2, “Radiolabeled compounds targeting the prostate-specific membrane antigen” (PROVINCIAL HEALTH SERVICES AUTHORITY, priority 2019, dated 2022)
# Assay: in vivo
# Set-up: species or system mice
# Conditions: male, NODSCID 1L2RγKO, mouse, iv, total radioactivity
smiles,measurement,setting,value
"O=C(O)CCC[C@H](NC(=O)N[C@@H](CCCCNC(=O)[C@H](Cc1c2ccccc2cc2ccccc12)NC(=O)[C@H]1CC[C@H](CNC(=O)CN2CCN(CC(=O)O)CCN(CC(=O)O)CCN(CC(=O)O)CC2)CC1)C(=O)O)C(=O)O [177Lu-HTK03149, metal not drawn]",tissue uptake at 1 h,Adrenal glands uptake,0.35 ± 0.07 %ID/g
same,tissue uptake at 4 h,Adrenal glands uptake,0.08 ± 0.01 %ID/g
same,tissue uptake at 24 h,Adrenal glands uptake,0.07 ± 0.02 %ID/g
same,tissue uptake at 72 h,Adrenal glands uptake,0.12 ± 0.05 %ID/g
same,tissue uptake at 120 h,Adrenal glands uptake,0.02 ± 0.03 %ID/g
same,tissue uptake at 1 h,Blood uptake,0.88 ± 0.07 %ID/g
same,tissue uptake at 4 h,Blood uptake,0.17 ± 0.03 %ID/g
same,tissue uptake at 24 h,Blood uptake,0.12 ± 0.01 %ID/g
same,tissue uptake at 72 h,Blood uptake,0.07 ± 0.02 %ID/g
same,tissue uptake at 120 h,Blood uptake,0.02 ± 0.01 %ID/g
same,tissue uptake at 1 h,Bone uptake,0.07 ± 0.02 %ID/g
same,tissue uptake at 4 h,Bone uptake,0.02 ± 0.01 %ID/g
same,tissue uptake at 24 h,Bone uptake,0.03 %ID/g
same,tissue uptake at 72 h,Bone uptake,0.03 ± 0.01 %ID/g
same,tissue uptake at 120 h,Bone uptake,0.01 ± 0.01 %ID/g
same,tissue uptake at 1 h,Brain uptake,0.02 %ID/g
same,tissue uptake at 4 h,Brain uptake,0.01 %ID/g
same,tissue uptake at 24 h,Brain uptake,0.01 %ID/g
same,tissue uptake at 1 h,Fat uptake,0.14 ± 0.05 %ID/g
same,tissue uptake at 4 h,Fat uptake,0.02 %ID/g
same,tissue uptake at 24 h,Fat uptake,0.02 %ID/g
same,tissue uptake at 72 h,Fat uptake,0.04 ± 0.04 %ID/g
same,tissue uptake at 120 h,Fat uptake,0.01 ± 0.01 %ID/g
same,tissue uptake at 1 h,Heart uptake,0.28 ± 0.04 %ID/g
same,tissue uptake at 4 h,Heart uptake,0.07 ± 0.01 %ID/g
same,tissue uptake at 24 h,Heart uptake,0.06 %ID/g
same,tissue uptake at 72 h,Heart uptake,0.06 ± 0.01 %ID/g
same,tissue uptake at 120 h,Heart uptake,0.03 ± 0.01 %ID/g
same,tissue uptake at 1 h,Intestine uptake,0.27 ± 0.06 %ID/g
same,tissue uptake at 4 h,Intestine uptake,0.19 ± 0.07 %ID/g
same,tissue uptake at 24 h,Intestine uptake,0.09 ± 0.05 %ID/g
same,tissue uptake at 72 h,Intestine uptake,0.09 ± 0.03 %ID/g
same,tissue uptake at 120 h,Intestine uptake,0.31 ± 0.48 %ID/g
same,tissue uptake at 1 h,Kidneys uptake,7.67 ± 1.35 %ID/g
same,tissue uptake at 4 h,Kidneys uptake,1.67 ± 0.38 %ID/g
same,tissue uptake at 24 h,Kidneys uptake,0.6 ± 0.11 %ID/g
same,tissue uptake at 72 h,Kidneys uptake,0.68 ± 0.39 %ID/g
same,tissue uptake at 120 h,Kidneys uptake,0.28 ± 0.06 %ID/g
same,tissue uptake at 1 h,Lacrimal uptake,0.02 ± 0.01 %ID/g
same,tissue uptake at 4 h,Lacrimal uptake,0.03 ± 0.01 %ID/g
same,tissue uptake at 72 h,Lacrimal uptake,0.01 ± 0.01 %ID/g
same,tissue uptake at 1 h,Liver uptake,0.26 ± 0.03 %ID/g
same,tissue uptake at 4 h,Liver uptake,0.11 ± 0.01 %ID/g
same,tissue uptake at 24 h,Liver uptake,0.1 ± 0.01 %ID/g
same,tissue uptake at 72 h,Liver uptake,0.13 ± 0.03 %ID/g
same,tissue uptake at 120 h,Liver uptake,0.08 ± 0.04 %ID/g
same,tissue uptake at 1 h,Lungs uptake,0.72 ± 0.06 %ID/g
same,tissue uptake at 4 h,Lungs uptake,0.17 ± 0.01 %ID/g
same,tissue uptake at 24 h,Lungs uptake,0.12 ± 0.01 %ID/g
same,tissue uptake at 72 h,Lungs uptake,0.11 ± 0.02 %ID/g
same,tissue uptake at 120 h,Lungs uptake,0.09 ± 0.08 %ID/g
same,tissue uptake at 1 h,Muscle uptake,0.18 ± 0.14 %ID/g
same,tissue uptake at 4 h,Muscle uptake,0.02 ± 0.01 %ID/g
same,tissue uptake at 24 h,Muscle uptake,0.02 %ID/g
same,tissue uptake at 72 h,Muscle uptake,0.02 %ID/g
same,tissue uptake at 120 h,Muscle uptake,0.01 %ID/g
same,tissue uptake at 1 h,Pancreas uptake,0.17 ± 0.03 %ID/g
same,tissue uptake at 4 h,Pancreas uptake,0.03 %ID/g
same,tissue uptake at 24 h,Pancreas uptake,0.03 %ID/g
same,tissue uptake at 72 h,Pancreas uptake,0.03 %ID/g
same,tissue uptake at 120 h,Pancreas uptake,0.02 ± 0.01 %ID/g
same,tissue uptake at 1 h,Salivary uptake,0.23 ± 0.06 %ID/g
same,tissue uptake at 4 h,Salivary uptake,0.05 ± 0.01 %ID/g
same,tissue uptake at 24 h,Salivary uptake,0.05 ± 0.01 %ID/g
same,tissue uptake at 72 h,Salivary uptake,0.05 ± 0.02 %ID/g
same,tissue uptake at 120 h,Salivary uptake,0.03 ± 0.01 %ID/g
same,tissue uptake at 1 h,Seminal uptake,0.38 ± 0.47 %ID/g
same,tissue uptake at 4 h,Seminal uptake,0.04 ± 0.03 %ID/g
same,tissue uptake at 24 h,Seminal uptake,0.02 %ID/g
same,tissue uptake at 72 h,Seminal uptake,0.03 ± 0.01 %ID/g
same,tissue uptake at 120 h,Seminal uptake,0.01 %ID/g
same,tissue uptake at 1 h,Spleen uptake,0.26 ± 0.05 %ID/g
same,tissue uptake at 4 h,Spleen uptake,0.09 ± 0.02 %ID/g
same,tissue uptake at 24 h,Spleen uptake,0.09 ± 0.01 %ID/g
same,tissue uptake at 72 h,Spleen uptake,0.14 ± 0.06 %ID/g
same,tissue uptake at 120 h,Spleen uptake,0.13 ± 0.08 %ID/g
same,tissue uptake at 1 h,Stomach uptake,0.1 ± 0.02 %ID/g
same,tissue uptake at 4 h,Stomach uptake,0.05 ± 0.02 %ID/g
same,tissue uptake at 24 h,Stomach uptake,0.13 ± 0.11 %ID/g
same,tissue uptake at 72 h,Stomach uptake,0.14 ± 0.1 %ID/g
same,tissue uptake at 120 h,Stomach uptake,0.24 ± 0.31 %ID/g
same,tissue uptake at 1 h,Tail uptake,0.52 ± 0.13 %ID/g
same,tissue uptake at 4 h,Tail uptake,0.2 ± 0.14 %ID/g
same,tissue uptake at 24 h,Tail uptake,0.14 ± 0.14 %ID/g
same,tissue uptake at 72 h,Tail uptake,0.08 ± 0.02 %ID/g
same,tissue uptake at 120 h,Tail uptake,0.04 ± 0.01 %ID/g
same,tissue uptake at 1 h,Testes uptake,0.26 ± 0.02 %ID/g
same,tissue uptake at 4 h,Testes uptake,0.06 %ID/g
same,tissue uptake at 24 h,Testes uptake,0.05 %ID/g
same,tissue uptake at 72 h,Testes uptake,0.05 ± 0.01 %ID/g
same,tissue uptake at 120 h,Testes uptake,0.03 ± 0.01 %ID/g
same,tissue uptake at 1 h,Thyroid uptake,0.27 ± 0.02 %ID/g
same,tissue uptake at 4 h,Thyroid uptake,0.07 ± 0.01 %ID/g
same,tissue uptake at 24 h,Thyroid uptake,0.06 %ID/g
same,tissue uptake at 72 h,Thyroid uptake,0.08 ± 0.01 %ID/g
same,tissue uptake at 120 h,Thyroid uptake,0.04 ± 0.01 %ID/g
same,tissue uptake at 1 h,Tumor uptake,14 ± 2.16 %ID/g
same,tissue uptake at 4 h,Tumor uptake,20.9 ± 2.99 %ID/g
same,tissue uptake at 24 h,Tumor uptake,13.8 ± 2.88 %ID/g
same,tissue uptake at 72 h,Tumor uptake,17.1 ± 4.7 %ID/g
same,tissue uptake at 120 h,Tumor uptake,16.4 ± 11 %ID/g
